Results as given in the supplement of paper PMC11246515.
± gives the standard deviation of the averaged measurements.

Assay: total protein half-life in vivo (active degradation + dilution); higher = more stable protein
[1] = E. coli NCM3722 delta-clpP delta-lon delta-hslV, growth: N-lim chemostat, doubling time 6 h
[2] = E. coli NCM3722 delta-hslV, growth: N-lim chemostat, doubling time 6 h
[3] = E. coli NCM3722 delta-lon, growth: N-lim chemostat, doubling time 6 h
[4] = E. coli NCM3722 delta-smpB, growth: N-lim chemostat, doubling time 6 h
[5] = wild type E. coli NCM3722, growth: C-lim chemostat, doubling time 12 h
[6] = wild type E. coli NCM3722, growth: N-lim chemostat, doubling time 6 h
[7] = wild type E. coli NCM3722, growth: N-lim chemostat, doubling time 12 h
[8] = wild type E. coli NCM3722, growth: P-lim chemostat, doubling time 6 h
[9] = wild type E. coli NCM3722, growth: P-lim chemostat, doubling time 12 h
[10] = E. coli NCM3722 delta-clpP, growth: N-lim chemostat, doubling time 6 h
[11] = wild type E. coli NCM3722, growth: C-lim chemostat, doubling time 6 h
[12] = wild type E. coli NCM3722, growth: C-lim chemostat, doubling time 3 h

## MAATKPAFNPPGKKGDIIFSVLVKLAALIVLLMLGGIIVSLIISSWPSIQKFGLAFLWTKEWDAPNDIYGALVPIYGTLVTSFIALLIAVPVSFGIALFLTELAPGWLKRPLGIAIELLAAIPSIVYGMWGLFIFAPLFAVYFQEPVGNIMSNIPIVGALFSGPAFGIGILAAGVILAIMIIPYIAAVMRDVFEQTPVMMKESAYGIGCTTWEVIWRIVLPFTKNGVIGGIMLGLGRALGETMAVTFIIGNTYQLDSASLYMPGNSITSALANEFAEAESGLHVAALMELGLILFVITFIVLAASKFMIMRLAKNEGAR [P0AGH8]
[1]
  total protein half-life in vivo: 5.52 ± 1 h
[2]
  total protein half-life in vivo: 5.62 ± 0.46 h
[3]
  total protein half-life in vivo: 5.31 ± 1.4 h
[4]
  total protein half-life in vivo: 5.08 ± 0.47 h
[5]
  total protein half-life in vivo: 15.4 h
[6]
  total protein half-life in vivo: 3.42 h
[7]
  total protein half-life in vivo: 12.1 h
[8]
  total protein half-life in vivo: 5.49 ± 0.25 h
[9]
  total protein half-life in vivo: 11.4 ± 0.52 h

## MACGEFSLIARYFDRVRSSRLDVELGIGDDCALLNIPEKQTLAISTDTLVAGNHFLPDIDPADLAYKALAVNLSDLAAMGADPAWLTLALTLPDVDEAWLESFSDSLFDLLNYYDMQLIGGDTTRGPLSMTLGIHGFVPMGRALTRSGAKPGDWIYVTGTPGDSAAGLAILQNRLQVADAKDADYLIKRHLRPSPRILQGQALRDLANSAIDLSDGLISDLGHIVKASDCGARIDLALLPFSDALSRHVEPEQALRWALSGGEDYELCFTVPELNRGALDVALGHLGVPFTCIGQMTADIEGLCFIRDGEPVTLDWKGYDHFATP [P0AGG0]
[1]
  total protein half-life in vivo: 5.68 ± 0.31 h
[10]
  total protein half-life in vivo: 4.97 ± 0.5 h
[2]
  total protein half-life in vivo: 5.14 ± 1.4 h
[4]
  total protein half-life in vivo: 3.99 ± 0.23 h
[11]
  total protein half-life in vivo: 5.41 ± 0.077 h
[5]
  total protein half-life in vivo: 10.2 ± 1 h
[6]
  total protein half-life in vivo: 4.17 ± 0.23 h
[7]
  total protein half-life in vivo: 7.02 ± 0.95 h
[8]
  total protein half-life in vivo: 5.41 ± 0.33 h
[9]
  total protein half-life in vivo: 12.1 ± 0.31 h

## MADILLLDNIDSFTYNLADQLRSNGHNVVIYRNHIPAQTLIERLATMSNPVLMLSPGPGVPSEAGCMPELLTRLRGKLPIIGICLGHQAIVEAYGGYVGQAGEILHGKASSIEHDGQAMFAGLTNPLPVARYHSLVGSNIPAGLTINAHFNGMVMAVRHDADRVCGFQFHPESILTTQGARLLEQTLAWAQQKLEPANTLQPILEKLYQAQTLSQQESHQLFSAVVRGELKPEQLAAALVSMKIRGEHPNEIAGAATALLENAAPFPRPDYLFADIVGTGGDGSNSINISTASAFVAAACGLKVAKHGNRSVSSKSGSSDLLAAFGINLDMNADKSRQALDELGVCFLFAPKYHTGFRHAMPVRQQLKTRTLFNVLGPLINPAHPPLALIGVYSPELVLPIAETLRVLGYQRAAVVHSGGMDEVSLHAPTIVAELHDGEIKSYQLTAEDFGLTPYHQEQLAGGTPEENRDILTRLLQGKGDAAHEAAVAANVAMLMRLHGHEDLQANAQTVLEVLRSGSAYDRVTALAARG
[1]
  total protein half-life in vivo: 3.96 ± 0.42 h
[10]
  total protein half-life in vivo: 3.018 ± 0.0036 h
[2]
  total protein half-life in vivo: 2.96 ± 0.18 h
[3]
  total protein half-life in vivo: 3.02 ± 0.12 h
[4]
  total protein half-life in vivo: 2.769 ± 0.019 h
[12]
  total protein half-life in vivo: 3.23 ± 0.33 h
[11]
  total protein half-life in vivo: 4.79 ± 0.1 h
[5]
  total protein half-life in vivo: 10.4 ± 1.9 h
[6]
  total protein half-life in vivo: 3.01 ± 0.27 h
[7]
  total protein half-life in vivo: 3.72 ± 0.29 h
[8]
  total protein half-life in vivo: 6.54 ± 1.6 h
[9]
  total protein half-life in vivo: 12.2 ± 3.9 h

## MADKKLDTQLVNAGRSKKYTLGAVNSVIQRASSLVFDSVEAKKHATRNRANGELFYGRRGTLTHFSLQQAMCELEGGAGCVLFPCGAAAVANSILAFIEQGDHVLMTNTAYEPSQDFCSKILSKLGVTTSWFDPLIGADIVKHLQPNTKIVFLESPGSITMEVHDVPAIVAAVRSVVPDAIIMIDNTWAAGVLFKALDFGIDVSIQAATKYLVGHSDAMIGTAVCNARCWEQLRENAYLMGQMVDADTAYITSRGLRTLGVRLRQHHESSLKVAEWLAEHPQVARVNHPALPGSKGHEFWKRDFTGSSGLFSFVLKKKLNNEELANYLDNFSLFSMAYSWGGYESLILANQPEHIAAIRPQGEIDFSGTLIRLHIGLEDVDDLIADLDAGFARIV
[1]
  total protein half-life in vivo: 4.64 ± 0.42 h
[10]
  total protein half-life in vivo: 4.43 ± 0.49 h
[2]
  total protein half-life in vivo: 3.95 ± 0.2 h
[3]
  total protein half-life in vivo: 6.18 ± 0.7 h
[4]
  total protein half-life in vivo: 4.33 ± 0.2 h
[12]
  total protein half-life in vivo: 3.36 ± 0.33 h
[11]
  total protein half-life in vivo: 4.76 ± 1.1 h
[5]
  total protein half-life in vivo: 9.28 ± 0.72 h
[6]
  total protein half-life in vivo: 4.28 ± 0.085 h
[8]
  total protein half-life in vivo: 6.1 ± 0.46 h
[9]
  total protein half-life in vivo: 12.1 ± 1.6 h

## MADLDDIKDGKDFRTDQPQKNIPFTLKGCGALDWGMQSRLSRIFNPKTGKTVMLAFDHGYFQGPTTGLERIDINIAPLFEHADVLMCTRGILRSVVPPATNRPVVLRASGANSILAELSNEAVALSMDDAVRLNSCAVAAQVYIGSEYEHQSIKNIIQLVDAGMKVGMPTMAVTGVGKDMVRDQRYFSLATRIAAEMGAQIIKTYYVEKGFERIVAGCPVPIVIAGGKKLPEREALEMCWQAIDQGASGVDMGRNIFQSDHPVAMMKAVQAVVHHNETADRAYELYLSEKQ
[1]
  total protein half-life in vivo: 4.41 ± 0.29 h
[10]
  total protein half-life in vivo: 3.51 ± 0.53 h
[2]
  total protein half-life in vivo: 3.03 ± 0.036 h
[3]
  total protein half-life in vivo: 3.91 ± 0.79 h
[4]
  total protein half-life in vivo: 3.6 ± 0.39 h
[12]
  total protein half-life in vivo: 3.27 ± 0.084 h
[11]
  total protein half-life in vivo: 5.1 ± 0.23 h
[5]
  total protein half-life in vivo: 8.52 ± 0.53 h
[6]
  total protein half-life in vivo: 3.58 h
[7]
  total protein half-life in vivo: 4.43 ± 0.74 h
[8]
  total protein half-life in vivo: 5.44 ± 0.21 h
[9]
  total protein half-life in vivo: 11 ± 0.47 h

## MADRNLRDLLAPWVPDAPSRALREMTLDSRVAAAGDLFVAVVGHQADGRRYIPQAIAQGVAAIIAEAKDEATDGEIREMHGVPVIYLSQLNERLSALAGRFYHEPSDNLRLVGVTGTNGKTTTTQLLAQWSQLLGEISAVMGTVGNGLLGKVIPTENTTGSAVDVQHELAGLVDQGATFCAMEVSSHGLVQHRVAALKFAASVFTNLSRDHLDYHGDMEHYEAAKWLLYSEHHCGQAIINADDEVGRRWLAKLPDAVAVSMEDHINPNCHGRWLKATEVNYHDSGATIRFSSSWGDGEIESHLMGAFNVSNLLLALATLLALGYPLADLLKTAARLQPVCGRMEVFTAPGKPTVVVDYAHTPDALEKALQAARLHCAGKLWCVFGCGGDRDKGKRPLMGAIAEEFADVAVVTDDNPRTEEPRAIINDILAGMLDAGHAKVMEGRAEAVTCAVMQAKENDVVLVAGKGHEDYQIVGNQRLDYSDRVTVARLLGVIA
[1]
  total protein half-life in vivo: 5.09 ± 0.76 h
[10]
  total protein half-life in vivo: 3.51 ± 0.15 h
[2]
  total protein half-life in vivo: 3.43 ± 0.23 h
[3]
  total protein half-life in vivo: 4.497 ± 0.044 h
[4]
  total protein half-life in vivo: 3.39 ± 0.23 h
[12]
  total protein half-life in vivo: 2.65 ± 0.31 h
[11]
  total protein half-life in vivo: 5.8 ± 0.085 h
[5]
  total protein half-life in vivo: 9.05 ± 0.4 h
[6]
  total protein half-life in vivo: 3.71 ± 0.04 h
[7]
  total protein half-life in vivo: 6.39 ± 0.93 h
[8]
  total protein half-life in vivo: 5.18 ± 0.14 h
[9]
  total protein half-life in vivo: 8.724 ± 0.074 h

## MADTHHAQGPGKSVLGIGQRIVSIMVEMVETRLRLAVVELEEEKANLFQLLLMLGLTMLFAAFGLMSLMVLIIWAVDPQYRLNAMIATTVVLLLLALIGGIWTLRKSRKSTLLRHTRHELANDRQLLEEESREQ
[1]
  total protein half-life in vivo: 6.43 ± 0.14 h
[10]
  total protein half-life in vivo: 6.06 ± 0.94 h
[2]
  total protein half-life in vivo: 7.19 ± 0.63 h
[3]
  total protein half-life in vivo: 5.35 ± 1.2 h
[4]
  total protein half-life in vivo: 6.49 ± 0.34 h
[12]
  total protein half-life in vivo: 2.99 ± 0.26 h
[11]
  total protein half-life in vivo: 5.36 ± 0.18 h
[5]
  total protein half-life in vivo: 11 ± 0.91 h
[6]
  total protein half-life in vivo: 6.27 ± 0.46 h
[7]
  total protein half-life in vivo: 11.7 ± 3.4 h
[8]
  total protein half-life in vivo: 4.39 ± 0.56 h

## MADWVTGKVTKVQNWTDALFSLTVHAPVLPFTAGQFTKLGLEIDGERVQRAYSYVNSPDNPDLEFYLVTVPDGKLSPRLAALKPGDEVQVVSEAAGFFVLDEVPHCETLWMLATGTAIGPYLSILQLGKDLDRFKNLVLVHAARYAADLSYLPLMQELEKRYEGKLRIQTVVSRETAAGSLTGRIPALIESGELESTIGLPMNKETSHVMLCGNPQMVRDTQQLLKETRQMTKHLRRRPGHMTAEHYW
[10]
  total protein half-life in vivo: 3.93 ± 0.36 h
[2]
  total protein half-life in vivo: 4.14 ± 0.33 h
[3]
  total protein half-life in vivo: 4.64 ± 0.33 h
[4]
  total protein half-life in vivo: 3.83 ± 0.12 h
[12]
  total protein half-life in vivo: 2.888 ± 0.0031 h
[11]
  total protein half-life in vivo: 5.62 ± 0.29 h
[5]
  total protein half-life in vivo: 10.8 ± 0.21 h
[6]
  total protein half-life in vivo: 4.29 ± 0.31 h
[7]
  total protein half-life in vivo: 6.73 ± 0.41 h
[8]
  total protein half-life in vivo: 5.609 ± 0.031 h
[9]
  total protein half-life in vivo: 11.3 ± 0.53 h
